The test system of one test is CHO. The test is described as follows: Proliferation of other cell lines: CHO. The class given is cell-based. Particulars: even at high concentration.
The next test has as its system CALU-6 tumors. The test is described as follows: CALU-6 non-small cell lung cancer xenograft in Swiss Nude mice, tumor growth. Format: in vivo. As for the experimental part:
CALU-6 cells were cultured as adherent cells in complete EMEM medium (Ref. CM1MEM18-01, batch No. 462502, Eurobio, France) 10% fetal calf serum (FCS; Ref. CVFSVF00-01, batch No. 513021, Eurobio, France) under a 37° C., 5% CO2 humidified atmosphere. They were amplified in 75 cm^2-flasks to reach 90×10^6 cells.
At D0, CALU-6 cells (human lung carcinoma) were collected from 75 cm^2-flasks by removing the medium and adding 3 ml of trypsine-EDTA (Ref. CEZTDA00-0U, batch No. 633920, Eurobio, France). After 5 min of incubation at 37° C., cells had detached from the plastic and the enzymatic reaction was stopped by adding 3 ml of EMEM medium containing 10% fetal calf serum. Cells were then centrifuged at 700 g for 5 min at room temperature. They were resuspended in serum-free EMEM culture medium. Cells were counted and viability assessment by Trypan Blue exclusion (Ref. CSTCOL03-OU, batch No. 434511, Eurobio, France). The number of viable CALU-6 cells was >99%. The number of cells was then adjusted to 25×10^6 cells/ml in serum-free medium.
CALU-6 cells 5×10^6 cells/mouse in 200 μl of serum-free medium) were then implanted subcutaneously in the right flank of each mouse.
At D12 post-implantation of the CALU-6 cells, the thirty mice were randomized into six groups of 5 mice. Tumor volumes had reached 228 to 468 mm^3 and mean tumor volumes were not statistically different between groups after randomization.
Mean tumor volumes (MTV), mean relative tumor volume (MRTV) and tumor growth inhibition (T/C) were calculated as for example 7.

The mark [1] stands for this setting: IP Q2DX8, CDDP 5 mg/kg (G2), 497C-T2 10 mg/kg (G3), 497C-T2 10 mg/kg + CDDP 5 mg/kg (G4).

B1: 497C-T2: entire LEL domain of protein 497C, SEQ ID NO:3 (112 amino acids); as produced SEQ ID NO:8, with N-terminal His-Tag and C-terminal tail, 24 kD (protein, listed as Homo sapiens)
chain: MHHHHHHSSGLVPRGSGMKETAAAKFERQHMDSPDLGTDDDDKISGFVFRHEIKDTFLRTYTDAMQTYNGNDERSRAVDHVQRSLSCCGVQNYTNWSTSPYFLEHGIPPSCCMNETDCNPQDLHNLTVAATKVNQKGCYDLVTSFMETNMGIIAGDRASPQPWRYRIRILAPSTSLRPHSSTTTTTTXIRLLTKPERKLSWLLPPLSNN
modifications: X: residue not identified in the source
With B1, the “anti-proliferative effect” value in the test on CHO is given as “without any detectable anti-proliferative effect”. Further, in the test with CALU-6 tumors (CALU-6, monotherapy (G3) or combined with CDDP (G4)), the “anti-tumoral activity” value is recorded as “slight anti-tumoral activity”. Further, in the test with CALU-6 tumors (setting [1]), the “Growth inhibition based on T/C ratio, T/C ratio (%) D14” value is 10%; the “Growth inhibition based on T/C ratio, T/C ratio (%) D16” value was 33%; the “Growth inhibition based on T/C ratio, T/C ratio (%) D18” value was 7%; the “Growth inhibition based on T/C ratio, T/C ratio (%) D20” value amounted to 13%. In the test on CALU-6 tumors (setting [1]), the “Growth inhibition based on T/C ratio, T/C ratio (%) D22” value turned out to be 26%; the “Growth inhibition based on T/C ratio, T/C ratio (%) D24” value is 24%; the “Growth inhibition based on T/C ratio, T/C ratio (%) D26” value is on record as 39%; the “Growth inhibition based on T/C ratio, T/C ratio (%) D28” value is listed as 27%. Moreover, in the test on CALU-6 tumors (setting [1]), the “MRTV D14” value was determined as 1.64, the “MRTV D16” value is 2.11, the “MRTV D18” value worked out at 2.34 and the “MRTV D20” value is listed as 3.22. Besides, in the test on CALU-6 tumors (setting [1]), the “MRTV D22” value was 3.09, the “MRTV D24” value stood at 4.31, the “MRTV D26” value turned out to be 4.60 and the “MRTV D28” value was found to be 6.02. Further, the “MRTV D12” value with CALU-6 tumors (reference day, IP Q2DX8, CDDP 5 mg/kg (G2), 497C-T2 10 mg/kg (G3), 497C-T2 10 mg/kg + CDDP 5 mg/kg (G4)) came out at 1.

Source of the values: patent US8372810B2, “Anti-tumor drug, medicament, composition, and use thereof” (Gene Signal International SA, priority 2007, dated 2013).
